From article doi:10.1101/238154 (bioRxiv, 2017)
Values belong to the binder of their own block, whether it stands above or below them.

Experiments:
[1] = molecular target: ubiquitin (untagged) (UniProt P0CG47 1-76); assay: ITC
[2] = molecular target: N-terminally TAMRA-labeled monoubiquitin (UniProt P0CG47 1-76, TAMRA on the N-terminus); assay: fluorescence polarisation

Kd [1]: 430 mM
B1: SAGA DUB module containing Ubp8^C146A (complex)
chain 1: MSICPHIQQVFQNEKSKDGVLKTCNAARYILNHSVPKEKFLNTMKCGTCHEINSGATFMCLQCGFCGCWNHSHFLSHSKQIGHIFGINSNNGLLFCFKCEDYIGNIDLINDAILAKYWDDVCTKTMVPSMERRDGLSGLINMGSTAFMSSILQCLIHNPYFIRHSMSQIHSNNCKVRSPDKCFSCALDKIVHELYGALNTKQASSSSTSTNRQTGFIYLLTCAWKINQNLAGYSQQDAHEFWQFIINQIHQSYVLDLPNAKEVSRANNKQCECIVHTVFEGSLESSIVCPGCQNNSKTTIDPFLDLSLDIKDKKKLYECLDSFHKKEQLKDFNYHCGECNSTQDAIKQLGIHKLPSVLVLQLKRFEHLLNGSNRKLDDFIEFPTYLNMKNYCSTKEKDKHSENGKVPDIIYELIGIVSHKGTVNEGHYIAFCKISGGQWFKFNDSMVSSISQEEVLKEQAYLLFYTIRQVN
chain 2: MTEETITIDSISNGILNNLLTTLIQDIVARETTQQQLLKTRYPDLRSYYFDPNGSLDINGLQKQQESSQYIHCENCGRDVSANRLAAHLQRCLSRGARR
chain 3: MTMDTAQLKSQIQQYLVESGNYELISNELKARLLQEGWVDKVKDLTKSEMNINESTNFTQILSTVEPKALEMVSDSTRETVLKQIREFLEEIVDTQ
chain 4: MRSGDAEIKGIKPKVIEEYSLSQGSGPSNDSWKSLMSSAKDTPLQYDHMNRESLKKYFNPNAQLIEDPLDKPIQYRVCEKCGKPLALTAIVDHLEN

binding result [2]: binds
B2: USP4(8-925) wild-type (enzyme)
chain: RERPDAETQKSELGPLMRTTLQRGAQWYLIDSRWFKQWKKYVGFDSWDMYNVGEHNLFPGPIDNSGLFSDPESQTLKEHLIDELDYVLVPTEAWNKLLNWYGCVEGQQPIVRKVVEHGLFVKHCKVEVYLLELKLCENSDPTNVLSCHFSKADTIATIEKEMRKLFNIPAERETRLWNKYMSNTYEQLSKLDNTVQDAGLYQGQVLVIEPQNEDGTWPRQTLQSKSSTAPSRNFTTSPKSSASPYSSVSASLIANGDSTSTCGMHSSGVSRGGSGFSASYNCQEPPSSHIQPGLCGLGNLGNTCFMNSALQCLSNTAPLTDYFLKDEYEAEINRDNPLGMKGEIAEAYAELIKQMWSGRDAHVAPRMFKTQVGRFAPQFSGYQQQDSQELLAFLLDGLHEDLNRVKKKPYLELKDANGRPDAVVAKEAWENHRLRNDSVIVDTFHGLFKSTLVCPECAKVSVTFDPFCYLTLPLPLKKDRVMEVFLVPADPHCRPTQYRVTVPLMGAVSDLCEALSRLSGIAAENMVVADVYNHRFHKIFQMDEGLNHIMPRDDIFVYEVCSTSVDGSECVTLPVYFRERKSRPSSTSSASALYGQPLLLSVPKHKLTLESLYQAVCDRISRYVKQPLPDEFGSSPLEPGACNGSRNSCEGEDEEEMEHQEEGKEQLSETEGSGEDEPGNDPSETTQKKIKGQPCPKRLFTFSLVNSYGTADINSLAADGKLLKLNSRSTLAMDWDSETRRLYYDEQESEAYEKHVSMLQPQKKKKTTVALRDCIELFTTMETLGEHDPWYCPNCKKHQQATKKFDLWSLPKILVVHLKRFSYNRYWRDKLDTVVEFPIRGLNMSEFVCNLSARPYVYDLIAVSNHYGAMGVGHYTAYAKNKLNGKWYYFDDSNVSLASEDQIVTKAAYVLFYQRRDD

Kd [2]: 0.6 ± 0.17 nM
B3: USP4(8-925) C311A mutant (enzyme)
chain: RERPDAETQKSELGPLMRTTLQRGAQWYLIDSRWFKQWKKYVGFDSWDMYNVGEHNLFPGPIDNSGLFSDPESQTLKEHLIDELDYVLVPTEAWNKLLNWYGCVEGQQPIVRKVVEHGLFVKHCKVEVYLLELKLCENSDPTNVLSCHFSKADTIATIEKEMRKLFNIPAERETRLWNKYMSNTYEQLSKLDNTVQDAGLYQGQVLVIEPQNEDGTWPRQTLQSKSSTAPSRNFTTSPKSSASPYSSVSASLIANGDSTSTCGMHSSGVSRGGSGFSASYNCQEPPSSHIQPGLCGLGNLGNTAFMNSALQCLSNTAPLTDYFLKDEYEAEINRDNPLGMKGEIAEAYAELIKQMWSGRDAHVAPRMFKTQVGRFAPQFSGYQQQDSQELLAFLLDGLHEDLNRVKKKPYLELKDANGRPDAVVAKEAWENHRLRNDSVIVDTFHGLFKSTLVCPECAKVSVTFDPFCYLTLPLPLKKDRVMEVFLVPADPHCRPTQYRVTVPLMGAVSDLCEALSRLSGIAAENMVVADVYNHRFHKIFQMDEGLNHIMPRDDIFVYEVCSTSVDGSECVTLPVYFRERKSRPSSTSSASALYGQPLLLSVPKHKLTLESLYQAVCDRISRYVKQPLPDEFGSSPLEPGACNGSRNSCEGEDEEEMEHQEEGKEQLSETEGSGEDEPGNDPSETTQKKIKGQPCPKRLFTFSLVNSYGTADINSLAADGKLLKLNSRSTLAMDWDSETRRLYYDEQESEAYEKHVSMLQPQKKKKTTVALRDCIELFTTMETLGEHDPWYCPNCKKHQQATKKFDLWSLPKILVVHLKRFSYNRYWRDKLDTVVEFPIRGLNMSEFVCNLSARPYVYDLIAVSNHYGAMGVGHYTAYAKNKLNGKWYYFDDSNVSLASEDQIVTKAAYVLFYQRRDD
